# Reference: paper PMC9482650, “Quantitative fragmentomics allow affinity mapping of interactomes” (Nature Communications, 2022)
# Substitutions are numbered along the chain they refer to.
# T1: APBA1_2, Q02410
# T1 sequence (Q02410 742-832, limits assumed, looked up): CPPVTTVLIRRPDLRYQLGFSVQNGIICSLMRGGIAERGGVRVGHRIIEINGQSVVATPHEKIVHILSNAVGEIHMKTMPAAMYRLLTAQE
# T2: APBA2_1, Q99767
# T2 sequence (Q99767 563-664, limits assumed, looked up): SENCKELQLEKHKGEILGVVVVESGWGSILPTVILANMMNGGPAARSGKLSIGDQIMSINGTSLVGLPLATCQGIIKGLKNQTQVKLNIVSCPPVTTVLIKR
# T3: ARHGEF11, O15085
# T3 sequence (O15085 42-136, limits assumed, looked up): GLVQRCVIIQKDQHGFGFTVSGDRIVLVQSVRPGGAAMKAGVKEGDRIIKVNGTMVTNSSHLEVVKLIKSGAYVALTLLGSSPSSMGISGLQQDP
# T4: DLG3_1, Q92796
# T4 sequence (Q92796 125-227, limits assumed, looked up): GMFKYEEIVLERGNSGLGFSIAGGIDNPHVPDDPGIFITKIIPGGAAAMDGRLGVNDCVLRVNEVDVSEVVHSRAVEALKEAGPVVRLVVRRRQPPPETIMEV
# T5: LIN7A, O14910
# T5 sequence (O14910 103-200, limits assumed, looked up): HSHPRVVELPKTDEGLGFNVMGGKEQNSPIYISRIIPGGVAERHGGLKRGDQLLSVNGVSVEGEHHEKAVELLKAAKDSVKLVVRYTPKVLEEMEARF
# T6: LIN7C, Q9NUP9
# T6 sequence (Q9NUP9 88-185, limits assumed, looked up): T5 sequence (O14910 103-200, limits assumed, looked up) with D13E, V20I, V40I, E42D, K77Q, D78G, S79K, A96S
# T7: PARD3B_1, Q8TEW8
# T7 sequence (Q8TEW8 196-299, limits assumed, looked up): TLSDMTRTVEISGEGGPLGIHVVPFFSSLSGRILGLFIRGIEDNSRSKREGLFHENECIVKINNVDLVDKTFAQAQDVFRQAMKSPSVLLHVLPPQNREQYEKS
# T8: PCLO, Q9Y6V0
# T8 sequence (Q9Y6V0 4491-4600, limits assumed, looked up): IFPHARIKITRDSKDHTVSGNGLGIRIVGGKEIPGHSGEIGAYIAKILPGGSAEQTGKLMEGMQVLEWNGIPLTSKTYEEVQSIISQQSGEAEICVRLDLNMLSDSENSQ
# T9: RAPGEF6, Q8TEU7
# T9 sequence (Q8TEU7 525-625, limits assumed, looked up): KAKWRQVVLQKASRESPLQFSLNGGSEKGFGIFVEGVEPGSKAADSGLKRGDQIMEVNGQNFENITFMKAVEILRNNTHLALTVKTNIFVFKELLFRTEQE
# T10: SNTG2, Q9NY99
# T10 sequence (Q9NY99 68-166, limits assumed, looked up): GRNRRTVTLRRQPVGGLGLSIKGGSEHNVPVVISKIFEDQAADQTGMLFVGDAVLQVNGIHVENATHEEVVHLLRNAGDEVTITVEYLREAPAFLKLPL
# T11: TX1BP3, O14907
# T11 sequence (O14907 10-122, limits assumed, looked up): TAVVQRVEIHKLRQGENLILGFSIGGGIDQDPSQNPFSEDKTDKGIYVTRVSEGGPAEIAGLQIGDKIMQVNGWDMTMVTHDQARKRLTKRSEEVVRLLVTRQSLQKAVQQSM
# Tests used:
# Assay in all cases: holdup assay
# Design in all cases: key: below the threshold = too weak to quantify, mostly under pKd 3.1 to 4
# AHNAK1, Q09666 = biological target: AHNAK1, Q09666
# APBA1_2, Q02410 = biological target: T1, APBA1_2, Q02410
# APBA2_1, Q99767 = biological target: T2, APBA2_1, Q99767
# ARHGEF11, O15085 = biological target: T3, ARHGEF11, O15085
# DLG1_2, Q12959 = biological target: DLG1_2, Q12959
# DLG2_3, Q15700 = biological target: DLG2_3, Q15700
# DLG3_1, Q92796 = biological target: T4, DLG3_1, Q92796
# DLG5_1, Q8TDM6 = biological target: DLG5_1, Q8TDM6
# FRMPD2_3, Q68DX3 = biological target: FRMPD2_3, Q68DX3
# FRMPD3, Q5JV73 = biological target: FRMPD3, Q5JV73
# GRASP, Q7Z6J2 = biological target: GRASP, Q7Z6J2
# GRIP2_7, Q9C0E4 = biological target: GRIP2_7, Q9C0E4
# HTRA2, O43464 = biological target: HTRA2, O43464
# Inadl_10, Q8NI35 = biological target: Inadl_10, Q8NI35
# Inadl_9, Q8NI35 = biological target: Inadl_9, Q8NI35
# LIMK2, P53671 = biological target: LIMK2, P53671
# LIN7A, O14910 = biological target: T5, LIN7A, O14910
# LIN7C, Q9NUP9 = biological target: T6, LIN7C, Q9NUP9
# LNX1_1, Q8TBB1 = biological target: LNX1_1, Q8TBB1
# LNX1_2, Q8TBB1 = biological target: LNX1_2, Q8TBB1
# MAGI2_6, Q86UL8 = biological target: MAGI2_6, Q86UL8
# MAGI3_2, Q5TCQ9 = biological target: MAGI3_2, Q5TCQ9
# PARD3B_1, Q8TEW8 = biological target: T7, PARD3B_1, Q8TEW8
# PCLO, Q9Y6V0 = biological target: T8, PCLO, Q9Y6V0
# RAPGEF6, Q8TEU7 = biological target: T9, RAPGEF6, Q8TEU7
# SNTG2, Q9NY99 = biological target: T10, SNTG2, Q9NY99
# TX1BP3, O14907 = biological target: T11, TX1BP3, O14907
# [1] = modified: phospho on T at position -2 from the C-terminal residue
# [2] = plain residues with an end cap or a label only (N-terminal biotin on a linker: ado-ado)
# Sequence of AHNAK1, Q09666 (Q09666 4-100): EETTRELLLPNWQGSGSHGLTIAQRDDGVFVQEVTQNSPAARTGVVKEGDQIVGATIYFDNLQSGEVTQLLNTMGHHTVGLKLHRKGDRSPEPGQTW
# Sequence of Inadl_9, Q8NI35 (Q8NI35 1530-1615): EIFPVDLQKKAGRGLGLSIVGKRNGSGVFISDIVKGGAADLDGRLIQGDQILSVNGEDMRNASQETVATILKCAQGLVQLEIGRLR
# Sequence of Inadl_10, Q8NI35 (Q8NI35 1673-1763): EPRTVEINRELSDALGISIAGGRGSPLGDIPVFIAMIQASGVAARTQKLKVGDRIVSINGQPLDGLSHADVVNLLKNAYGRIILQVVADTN
# Sequence of MAGI2_6, Q86UL8 (Q86UL8 1141-1229): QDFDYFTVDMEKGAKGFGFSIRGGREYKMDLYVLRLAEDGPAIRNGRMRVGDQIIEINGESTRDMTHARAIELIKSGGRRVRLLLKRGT
# Sequence of DLG5_1, Q8TDM6 (Q8TDM6 617-713): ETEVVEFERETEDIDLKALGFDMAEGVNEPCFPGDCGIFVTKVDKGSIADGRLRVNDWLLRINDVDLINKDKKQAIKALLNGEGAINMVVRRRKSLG
# Sequence of FRMPD3, Q5JV73 (Q5JV73 12-100): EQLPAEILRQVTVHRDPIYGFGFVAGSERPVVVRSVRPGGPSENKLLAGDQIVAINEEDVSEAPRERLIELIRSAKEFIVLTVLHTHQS
# Sequence of LNX1_2, Q8TBB1 (Q8TBB1 371-470): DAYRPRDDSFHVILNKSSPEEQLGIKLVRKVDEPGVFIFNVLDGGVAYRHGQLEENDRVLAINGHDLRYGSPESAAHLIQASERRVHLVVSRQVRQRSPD
# Sequence of LIMK2, P53671 (P53671 143-248): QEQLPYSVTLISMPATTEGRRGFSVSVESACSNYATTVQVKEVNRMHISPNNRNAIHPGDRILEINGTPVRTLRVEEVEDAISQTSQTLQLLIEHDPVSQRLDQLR
# Sequence of HTRA2, O43464 (O43464 355-458): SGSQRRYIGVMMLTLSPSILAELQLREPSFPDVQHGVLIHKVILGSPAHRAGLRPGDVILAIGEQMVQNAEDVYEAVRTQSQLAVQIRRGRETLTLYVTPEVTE
# Sequence of FRMPD2_3, Q68DX3 (Q68DX3 1073-1166): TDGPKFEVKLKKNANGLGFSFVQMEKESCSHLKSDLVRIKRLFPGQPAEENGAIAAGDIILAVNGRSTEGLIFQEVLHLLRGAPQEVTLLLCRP
# Sequence of MAGI3_2, Q5TCQ9 (Q5TCQ9 398-503): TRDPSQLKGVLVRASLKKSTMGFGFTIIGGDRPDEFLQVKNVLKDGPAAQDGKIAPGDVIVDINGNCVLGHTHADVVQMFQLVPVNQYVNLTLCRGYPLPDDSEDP
# Sequence of DLG1_2, Q12959 (Q12959 314-412): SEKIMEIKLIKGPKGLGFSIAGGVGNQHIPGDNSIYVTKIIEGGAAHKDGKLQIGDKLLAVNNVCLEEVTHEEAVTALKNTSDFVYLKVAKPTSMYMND
# Sequence of LNX1_1, Q8TBB1 (Q8TBB1 261-371): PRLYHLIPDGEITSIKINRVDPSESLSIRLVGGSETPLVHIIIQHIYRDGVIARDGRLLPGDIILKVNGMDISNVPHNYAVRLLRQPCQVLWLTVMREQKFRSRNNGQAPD
# Sequence of GRASP, Q7Z6J2 (Q7Z6J2 96-193): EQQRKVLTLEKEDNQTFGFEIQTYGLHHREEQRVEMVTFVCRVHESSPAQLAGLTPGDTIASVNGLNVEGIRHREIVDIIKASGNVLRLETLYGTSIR
# Sequence of GRIP2_7, Q9C0E4 (Q9C0E4 934-1023): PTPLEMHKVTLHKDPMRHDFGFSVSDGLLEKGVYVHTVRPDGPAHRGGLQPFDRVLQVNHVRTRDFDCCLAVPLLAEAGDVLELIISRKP
binder,measurement,setting,value
"SKPTRRETEV [HPV35-E6_-2P, P27228]",pKd,"AHNAK1, Q09666; [1]",below the threshold
same,pKd,"APBA1_2, Q02410; [1]",below the threshold
same,pKd,"APBA2_1, Q99767; [1]",below the threshold
same,pKd,"ARHGEF11, O15085; [1]",below the threshold
same,pKd,"DLG1_2, Q12959; [1]",below the threshold
same,pKd,"DLG2_3, Q15700; [1]",3.52
same,pKd,"DLG3_1, Q92796; [1]",below the threshold
same,pKd,"DLG5_1, Q8TDM6; [1]",below the threshold
same,pKd,"FRMPD2_3, Q68DX3; [1]",below the threshold
same,pKd,"FRMPD3, Q5JV73; [1]",below the threshold
same,pKd,"GRASP, Q7Z6J2; [1]",below the threshold
same,pKd,"GRIP2_7, Q9C0E4; [1]",below the threshold
same,pKd,"HTRA2, O43464; [1]",below the threshold
same,pKd,"Inadl_10, Q8NI35; [1]",below the threshold
same,pKd,"Inadl_9, Q8NI35; [1]",below the threshold
same,pKd,"LIMK2, P53671; [1]",below the threshold
same,pKd,"LIN7A, O14910; [1]",below the threshold
same,pKd,"LIN7C, Q9NUP9; [1]",4.05
same,pKd,"LNX1_1, Q8TBB1; [1]",below the threshold
same,pKd,"LNX1_2, Q8TBB1; [1]",below the threshold
same,pKd,"MAGI2_6, Q86UL8; [1]",below the threshold
same,pKd,"MAGI3_2, Q5TCQ9; [1]",below the threshold
same,pKd,"PARD3B_1, Q8TEW8; [1]",below the threshold
same,pKd,"PCLO, Q9Y6V0; [1]",below the threshold
same,pKd,"RAPGEF6, Q8TEU7; [1]",below the threshold
same,pKd,"SNTG2, Q9NY99; [1]",below the threshold
same,pKd,"TX1BP3, O14907; [1]",4.07
"YNNCLEILRV [DCAF7, P61962]",pKd,"AHNAK1, Q09666; [2]",below the threshold
same,pKd,"APBA1_2, Q02410; [2]",below the threshold
same,pKd,"APBA2_1, Q99767; [2]",below the threshold
same,pKd,"ARHGEF11, O15085; [2]",3.78
same,pKd,"DLG1_2, Q12959; [2]",below the threshold
same,pKd,"DLG2_3, Q15700; [2]",below the threshold
same,pKd,"DLG3_1, Q92796; [2]",below the threshold
same,pKd,"DLG5_1, Q8TDM6; [2]",below the threshold
same,pKd,"FRMPD2_3, Q68DX3; [2]",below the threshold
same,pKd,"FRMPD3, Q5JV73; [2]",below the threshold
same,pKd,"GRASP, Q7Z6J2; [2]",3.9
same,pKd,"GRIP2_7, Q9C0E4; [2]",below the threshold
same,pKd,"HTRA2, O43464; [2]",4.66
same,pKd,"Inadl_10, Q8NI35; [2]",below the threshold
same,pKd,"Inadl_9, Q8NI35; [2]",3.57
same,pKd,"LIMK2, P53671; [2]",below the threshold
same,pKd,"LIN7A, O14910; [2]",below the threshold
same,pKd,"LIN7C, Q9NUP9; [2]",below the threshold
same,pKd,"LNX1_1, Q8TBB1; [2]",below the threshold
same,pKd,"LNX1_2, Q8TBB1; [2]",4.1
same,pKd,"MAGI2_6, Q86UL8; [2]",below the threshold
same,pKd,"MAGI3_2, Q5TCQ9; [2]",below the threshold
same,pKd,"PARD3B_1, Q8TEW8; [2]",4.01
same,pKd,"PCLO, Q9Y6V0; [2]",below the threshold
same,pKd,"RAPGEF6, Q8TEU7; [2]",below the threshold
same,pKd,"SNTG2, Q9NY99; [2]",below the threshold
same,pKd,"TX1BP3, O14907; [2]",below the threshold
